In the NTF2 design screens of Basanta et al. (2020):

Experiment: protease stability score; higher = more stable; yeast display proteolysis, trypsin and chymotrypsin;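 further: log10 excess protease needed over predicted unfolded state with 0 meaning unfolded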

Row | Sequence | protease stability score
1 | DDEAVRAMKRWMDALKTGDPDHLKNNIDPNANIDVGDKRVHGREQIMTMVEKELHEIKITITSINFEDHGDKAVVIINYIRDHNGRPQSNRATLEAEVHNGRIKELKMKDDK | 0.468
2 | DDEAVRQIQTMVRNQNTGDPDKVAEQMDPNVQVDYGDTNLQGREHVHHWLEELKRQARFELTSVKAESQGDNIHVQVDRKVNVNGQPRRDEMHFEVRVHNGRIRSVDIQFDPDKYRQIMS | -0.28
3 | DDEDADKAQRILETGNPDEMDKLLDKDVRVVVGDKEYKGREQVSEFFRRLLEQVDTITFLSVEIHNGTVQARVLVNVNGHNVDVVFQFVVHNGKLKHAKVEARNEEEQKKLDRALS | 1.55
4 | DDEDADRMVKLIRTNDPETFARQMDPNARVEVGDKKVHGREEALKLLSELYNQADHFQVKSISRHNGRVTVDAILVVNGRTMRARIEVVVHNGRVKSARVKFTNPEDQKQMRRNVQ | -0.185
5 | DDEDAHRVADDANKALERGDERRLKELFDKDVRLHYGDKHVRGREEFEDWVQEWLRTVDKIRVEDYKVHDGVVRIRIRVDINGKDVSQTIDLDVKNGTIVNVVIKDN | 1.43
6 | DDEDAKHLMQVLQNGDEDRFAELVDENAHQTIGDKTIHGRSEFDRIHEKLKKRIDNFRVNDYRIDNGSVNADVSANVNGQKIRFKYQAHVTNGHIKEMRFQATDPRQEDKWHEMQK | -0.031
7 | DDEDAKRWEKFLKLQQEGNDSEMRKLVDENASFDVGNKHYSGMTTMAHELVRHAHDIRLEYKDVKIDVSGEQIYVTMEVTVNINGQPVRYTNVLEVTMHNGKVKTATNRIPEDVEREIRQ | 0.034
8 | DDEDDKRLADEFNTAVKQGDEDQLKNLMDEDATAEIGDKQLTGRENAAKHLVTLARHADHIQVNSVRVHDGRIRIDMRMIFNGQDHHYDIKIEVHNGRIKRMTVRNK | 1.6
9 | DDEDEHKFATRMAEILHTGDPDRFQEQVDENVEARYGDKEYHGDEQAKTAFKHVVERVDTVEIKHMDAKNGKVSVHFVLDYDGEKQHVTLNVELHNGKAQRVEFQTQ | 0.144
10 | DDEDFKKFKELVETGDWSSLRKQADKNVRQRVGDKQIHGKEEFSRLLKHLQDQIDHVEIKHMQDEPNHLRVDVVWNINGVRVRFQYIVELSNGHIKYIKIDVTDENKLTKLQDLLQ | 0.491
11 | DDEDKAREFQRHLLRLVRTNNEKDLHNMADPNVKVVIGDKVYSGRDDVAKAHAELRRNVDHINLEIKSVSHKNGRMKVEAEVIYDHNGKKDKRTMTAVIDRHNGKNVLVHMNIQ | 1.65
12 | DDEDNKRKAEEFVRLMHTGDEERIKELFDPNVKAVIGDKEYHGRDTVADWARRLREQADHFDVHRMTAQGDRVHVDMFVTHNGRTKRVVIVLKYHNGRVEEIKVQDG | 2.28
13 | DDEDQKSTAEEIAKALQTGDKDKVTELFDEDARLKIGDTEFHGREQVSRAVHEIKTRVDHMELKDMEFTGDHVRIVYIANVDGHHATFVAHVVLNNGTAKSMSLSVRDERDKESVDK | 0.276
14 | DDEDQRDQVRRLSKQMQTGDPNKVRQLLDPNAEVHIGDTTVHGREEVMRSQDKLRKRIDHFEMQDMKVDGESVVAHAVFRVDGKDITLEVRARYTNGRVKKMSFNPEAITRIRS | 0.127
15 | DDEDRKKADEMLKALKHGDPDRVRELMDPNAKAVYGDKRIRGRDDFVEDMFRKQREIKIDMKIEEFRVNGNHAVFTVDVIEDKDGRPKRFKARVVITLHNGKIIDIKVEEEH | 1.25
16 | DDEDVNRHAESISRALERGDEERLLELLDENVTVEYGDKRVHGREEIERFLREFHRHADHIKVDRVKARGNKVRIRAVNDYDGRKVDYVFHFQFENGRVRKVKIEEK | 1.29
17 | DDEDWHRLAERLFTALRTGDWKELLKMMDPNVNINIGDQTYHGRKDLKNWAQHMREEVDHVEIKSIRIQGNKIVLDITYVTNGQRQNVIFVFSIHNGKVKHVHAKTK | 1.14
18 | DDEEADKIVEELVKAMEHNDEKHFMELVDPNAKVRYGDTEYHGEDQIQTMFREIVEQADTVQVRSYRVENGEARVEANFRVNGRNAIVTMSATFHNGRVQSLRLHARDEEDRNKLDN | 0.999
19 | DDEEAKRVAEEVIKAMQKGDEEHFDRLVDPDVRLNVGDKVLHGRRDLRRWVKEVADKADHVQVDDVKVNNGTAKIRFRIDINGQTEEVIMHIHVTNGEVKSMRVQRT | 1.43
20 | DDEEALKVIHHFIEVMMSGDEETARRLADKNVEAHYGDRTYHGSEEAVRALIEWARSVDNMRIDSVTQEGNEVKVHVVAHFDGRRVEVDIVIEAHNGKINFVTINPDDIRRMKQ | 0.831
21 | DDEEARDIIRLMRHGNFDNIVKQMDPNVTLRYGNNTFHGRERAKHAAQRLKTHIDHVHLKDYKVHGDKIVIDMVYNVNGKHYEVRVVMHIHNGRIQKVQWDFRDDRDETDAEKRLS | 1.28
22 | DDEEARHRLSRISKMLEENDPQRFSNQADEDVRVDIGDKEIHGKEEVARQLTEWRKQVDHVRVTSVEVQGDHASVQFRADVNGRHRVLTLYMKWTNGRVKEMHIKEG | 0.857
23 | DDEEDHRVARLASTALQTGDPNQFKNLVDEDVKADVGDKTYHGHEQVMEMFKKFVDQVDHIKVKRVEVDGETARVDAEADINGRTKKIVLDVQAHNGHIKRVQMETS | 0.39
24 | DDEEDKTLNQKAREALTDNDPDQMMNLFDKDANVDVGEKRVHGREQLRRYMQDLHRMVDHVQVDSVKVDGEKLEFKVTLQYNGRRLKVVFRINYHDGRAKNMHIEFTDEKTLKQFEK | 0.882
25 | DDEEHRRILERFVRAFQTGDEDDLRNLADPNAKAQVGDKQVHGMDKFATHIRELVDRIDHIDVKSLTASGNTLHARIKFRVNGHDVTVVMRIQVHNGKLKRIEIDPEVVRQIEG | 1.22

Row | Sequence | protease stability score
26 | DDEEHVEEMMRRQQNNYKHGDFEELARQFDPNATVNVGDKTYHGREQIRDWYRKRKEDVDSMDLQVQHFSVDNGRIRIQATERQHFNGQDDSTHFQAEARKHGDKAKLKHFRQQ | -0.052
27 | DDEEIKRLVKKAAHAFVDNDPDQFIRLLRDDVRARYGDKEVRGKESIKKQLQHWIHRIDHVEVKSFRAHGNSAEAHIVAIINGRTFDVHMDITFDNGRAHTVVFDVRSEEEFKEAMT | 1.49
28 | DDEEKHKLADEVLHILRTGDHDSMARLADENAKAEIGDSRFHGRDHIRKLVKEFRDTADHIRVIDYRVKGDKIVLRMEFVFNGKTSEVNVVMRFHNGRIKDIEVDPTQVRQMEK | 1.03
29 | DDEEKKELADEIAQVIRTGDPKRMVEMVDENATAQVGDQKVHGRENIDKMMQNIRRTADHIRIEHVQVHGEEIRIKAKFHINGHTTTWVFSAEVHNGRIQRASLDRR | 1
30 | DDEELKRQAEEFLKNVKTGNHQELVKQMDPNVKVDVGDKRLQGRETAAHWFVKLVEQVDDFHVQTFDVHGETLEMHFVMEINGHRLQMVLRAEVHNGHIQEMSIDYRDPDRLRKVLS | 0.392
31 | DDEELQELVKVIQDNDKDRWRENIDKDARVRYGDKQWEGRNEVDKLMRELLEKADHIQFNSIHVQGNSIVVDVNINVNGKELDVIIEMEVRDGRIKHVKFQWRNEELHRIMDEILS | 0.879
32 | DDEEMTQLLRRILKALEKNDEDLYNQNFDEDVKINVGDKRYNGREDASKLMKTWNKQIDHFQVNDYTVSGEQLEMNITFQVDGRNVSFNVTATAKNGRVKEQTFDPSAMRKARS | -0.077
33 | DDEENKKINEQLKTGDPQTFVDQADENARFRIGDKDFQGREDAKKIADLRKNRVDHIRYREVHFEGDKFVLDAVATFNGRRIKFVVHVTFHNGRLKYYRIKVTNEEVRRQLDELNS | 0.8
34 | DDEEQKERAEEIIKAIQTGDPQQFNRQADPNVEVKIGDTNVHGRENAARNIAERVQRADHIQVETMDVDGNNVVIDMVIQHNGRTKRFIVTLHFQNGRVKKMSIEDS | 0.459
35 | DDEEQRKLAKEFIDLLRTGDEEHIAHQADKDVTFQIGDKRYTGQEELLKYMKHLVDRVDHIEVEEVDVRGNKVNVTVVVRYNGKRVTLNFDLEFSNGRLIHMSVDPDQQRQLDG | 1.18
36 | DDEERAEQFFRDIVEAIRTNDEERLRHLFDENAHAQVGDKTLHGREQIVKEIVSMAQSADHVSFQLRDLSVDGETITFYFKVQYTRNGRQTSKDVIIVARQSGDKLSVKTEVDS | 1.4
37 | DDEERAHEIFKKYQHVLKSNDEDKDRELMDPNARLHIGDKQYHGREQVTKYWHEVLTHADHLEANLKDFRVKGESINIVYTFRQNEDGRDSQVIIEMVMKRQGDHYTVTDNTQK | -0.044
38 | DDEERHKDAQKAMHLYQRGNPDEMDRLMDPNVKVRVGDETYHGREQANRAFKKIRDRVDHINVKSVSVHGNRINIVAEVNINGRNDILRVIIDYHNGRARRVIITHK | 0.204
39 | DDEERRKLADDLIKILQTGSSNDVRKLVDPNAKAHYGEKDFHGERELAKFMKEIADNVDHIEIETMEVHGDRVKIVMVIVHNGKQRRFVMVLVVHNGRIKKASQTSQ | 1.46
40 | DDEESEKFAEDAMRILQTGDEEKFVRQADPNARVVYGEKTVHGREEAKKEVKTFRDRVDKIDVHHVEVTNGKAFLDATFRFDGRDRHYVVEIVRHNGRIKQMVMKKK | -0.166
41 | DDEETAKRHQREWQKNLEFNDEKSIQELVDPNARWQIGDKEVHGREEWARQLRRLREDVDHVQIHVKHVEVSNGQYNLNILIKYNINGETHKIRLVYVAQKNNGRVLVRSVEHK | 0.655
42 | DDEFLKKVVEVIRHGDEERLVRNFDENARMRIGDKVFHGREEIKKALHRIREHADHIDVESVDQQGDTLDADVFIEVNGKNWVFKLKVTVHNGRIKEVSWHVRDEDADNIMKEIMS | 1.8
43 | DDEHANSMADQLQKAFETGDEDQIRRLMDKDVSINYGDKRIKGSRELAHWVATLRRQVDSIEYKSIHVKGDKVDIDVVVNVNGRNARFTLVARFSNGKFKELRVDPENMKRLKS | 1.47
44 | DDEHFDHLRKVLKTGDFERLNQLMDPNASADIGDKRYHGRESLEEMFRKLHTQIDHIEFKSMDLQGNKLKYTLVMTFNGREVTVTVVVEVQNGHIKRISIQARNESDREKLKHALD | 1.46
45 | DDEHIKEFLQVVRRGDPDKILKMIDPNAHLQVGDKDLHGRDAVKKAQDKLETTVDHFEVEEVHFQGDNVVVTYLLNVNGKSITVQLVANIEDGRIKSMRIEARSEEDHKILNEQQG | 0.693
46 | DDEHVRRLAEQLFKAMQSGDPDTVESLFDKNARVQIGDKSVSGHEDISKIFHDNWKRVDEFQLRTYDAHNGRVQLRFELHINGRRADITLSIEFRNGKIQEAVFEFRDESVRQQFRT | 1.29
47 | DDEIERTMKNLMEAFSEGDPDKFRRNADPNAKMNVGDKSFHGMDDFLHQLKQLNKQARIEIEHITVTAQGDHAEVHAQFVNTENGRPRTKRVVYRAEVRNGQAKSIKLEDTK | 0.176
48 | DDEIRRQVHRYLRALQRNDEKLASDLLDPNAKFVYGDKTVHGREQHKKELRKMKDQWEFSVDVKKVKVQGNKIKVTADIRVDVNGRPMSHRYVVIFHAHNGKIKNAEFRMDEKYYRDVKR | 0.208
49 | DDEIWSQIEHLLEIFKTGDEERYREQVDPNAKADVGDKKIHGRERIARHLYHLAKNMTIKREVDSVNIQGNEVSASFEVTVNINGNPIRFTVRVNYNFHNGRLQTFEIDVSEDLTKHMDS | 1.9
50 | DDEKAKEMMKVWKSGDEEDLVRLADENVSVVVGDHRVRGREEFKKWLHRLSEQVDRWKVDSVHAHNGRIQIDAVYVVNGQEFRLTIHVTMRNGRIKTVRAQVTTEDDERKLKKVVS | 0.63
